The text below walks through data of the supplement of paper PMC9112550, “Optimization of the antimicrobial peptide Bac7 by deep mutational scanning” (BMC Biology, 2022).
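Further: peptides expressed intracellularly from a pBAD plasmid library in pooled LB shake-flask culture, induced with 0.3% L-arabinose, DNA abundance read by NGS, three biological replicates, DESeq2 with apeglm shrinkage.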

This data set concerns Escherichia coli TOP10. The data set is described as follows: shrunken log2 fold change of peptide-encoding DNA abundance (4.5 h post-induction vs induction); higher = less antimicrobial activity (less host growth inhibition). The note with it: time post-induction: 4.5 h; library: site-saturation at positions 5, 18, 19, 20.
As to RRIRRRPPRLPRPRPRPDTIPRP, the “shrunken log2 fold change” value was -0.15.
RRIRCRPPRLPRPRPRPFERPRP: the “shrunken log2 fold change” value is -0.0613.
Take RRIRERPPRLPRPRPRPTIHPRP: the “shrunken log2 fold change” value is -0.324.
As to RRIRRRPPRLPRPRPRPECAPRP, the “shrunken log2 fold change” value was 0.426.
RRIRCRPPRLPRPRPRPSAVPRP: the “shrunken log2 fold change” value is -0.0828.
With RRIRRRPPRLPRPRPRPEPGPRP, the “shrunken log2 fold change” value was 0.587.
Consider RRIRWRPPRLPRPRPRPVNPPRP, for which the “shrunken log2 fold change” value was 0.0699.
In the case of RRIRSRPPRLPRPRPRPTHAPRP, the “shrunken log2 fold change” value stood at 0.368.
In the case of RRIRPRPPRLPRPRPRPPRHPRP, the “shrunken log2 fold change” value came out at 0.278.
With RRIRARPPRLPRPRPRPDKAPRP, the “shrunken log2 fold change” value was 0.121.
Regarding RRIRNRPPRLPRPRPRPPYCPRP, the “shrunken log2 fold change” value was 0.0775.
RRIRLRPPRLPRPRPRPGNEPRP: the “shrunken log2 fold change” value is -0.0032.
In the case of RRIRMRPPRLPRPRPRPINLPRP, the “shrunken log2 fold change” value was -0.0139.
For the sequence RRIRHRPPRLPRPRPRPTRNPRP, the “shrunken log2 fold change” value is -0.0346.
Consider RRIRIRPPRLPRPRPRPGPLPRP, for which the “shrunken log2 fold change” value is -0.00626.
On to RRIRKRPPRLPRPRPRPMQPPRP, for which the “shrunken log2 fold change” value is 0.288.
With RRIRMRPPRLPRPRPRPQQHPRP, the “shrunken log2 fold change” value amounted to 0.0483.
Consider RRIRHRPPRLPRPRPRPAVTPRP, for which the “shrunken log2 fold change” value is -0.1.
RRIRKRPPRLPRPRPRPCYAPRP: the “shrunken log2 fold change” value worked out at 0.083.
In the case of RRIRMRPPRLPRPRPRPNMKPRP, the “shrunken log2 fold change” value came to 0.0548.
Take RRIRIRPPRLPRPRPRPELRPRP: the “shrunken log2 fold change” value was found to be 0.0361.
For RRIRARPPRLPRPRPRPHTLPRP, the “shrunken log2 fold change” value was -0.213.
Consider RRIRDRPPRLPRPRPRPVDHPRP, for which the “shrunken log2 fold change” value was -0.173.
On to RRIRWRPPRLPRPRPRPSCAPRP, for which the “shrunken log2 fold change” value turned out to be 0.145.
As to RRIRLRPPRLPRPRPRPGYDPRP, the “shrunken log2 fold change” value is -0.233.
For RRIRERPPRLPRPRPRPEIFPRP the value was -0.00264; for RRIRCRPPRLPRPRPRPGAHPRP, 0.0157; for RRIRFRPPRLPRPRPRPTFHPRP, -0.385.
Then RRIRIRPPRLPRPRPRPLTYPRP, with -0.495; and RRIRKRPPRLPRPRPRPIQQPRP, with 0.25; and RRIRERPPRLPRPRPRPEGMPRP, with 0.046.
In the case of RRIRKRPPRLPRPRPRPKFVPRP, the “shrunken log2 fold change” value was -0.0367.
Regarding RRIRDRPPRLPRPRPRPCGQPRP, the “shrunken log2 fold change” value was -0.0223.
For RRIRDRPPRLPRPRPRPAAEPRP the value was 1.25; for RRIRLRPPRLPRPRPRPLENPRP, 0.0938; for RRIRLRPPRLPRPRPRPRDQPRP, 0.0949.
Then RRIRNRPPRLPRPRPRPQAQPRP, with -0.0086; and RRIRYRPPRLPRPRPRPQSFPRP, with -0.0418.
For RRIRWRPPRLPRPRPRPVSMPRP the value was -0.00416; for RRIRDRPPRLPRPRPRPNQMPRP, -0.0987; for RRIRFRPPRLPRPRPRPMMKPRP, -0.0975.
Consider RRIRVRPPRLPRPRPRPKHEPRP, for which the “shrunken log2 fold change” value is -0.0072.
RRIRNRPPRLPRPRPRPPQMPRP: the “shrunken log2 fold change” value worked out at 0.234.
Turning to RRIRWRPPRLPRPRPRPMFQPRP, the “shrunken log2 fold change” value is -0.241.
With RRIRTRPPRLPRPRPRPNKVPRP, the “shrunken log2 fold change” value was -0.326.
Consider RRIRWRPPRLPRPRPRPGSVPRP, for which the “shrunken log2 fold change” value worked out at 0.306.
Consider RRIRKRPPRLPRPRPRPGFCPRP, for which the “shrunken log2 fold change” value is 0.243.
Consider RRIRCRPPRLPRPRPRPRWGPRP, for which the “shrunken log2 fold change” value was found to be 0.495.
On to RRIRWRPPRLPRPRPRPCELPRP, for which the “shrunken log2 fold change” value amounted to 0.0544.
For RRIRGRPPRLPRPRPRPNHWPRP the value was 0.309.
